Laboratory results published in the supplement of paper PMC10065799, “High-throughput profiling of sequence recognition by tyrosine kinases and SH2 domains using bacterial peptide display” (eLife, 2023).

What was measured:
Grb2 SH2 = Grb2 SH2 (UniProt P62993); test: SH2 binding enrichment of the phosphorylated peptide, bacterial display (enrichment ratio); higher = better substrate or ligand; peptides without Tyr show the background
c-Src SH2 = test: as above
SHP2-C SH2 = test: as above
Jak2 = Jak2 (UniProt O60674); test: phosphorylation enrichment, bacterial display (enrichment ratio); higher = better substrate or ligand; peptides without Tyr show the background
Hck = Hck (UniProt P08631); test: as above
Fes = Fes (UniProt P07332); test: as above
AncSZ = test: as above
FGFR1 = FGFR1 (UniProt P11362); test: as above
Fyn = Fyn (UniProt P06241); test: as above
c-Abl (mouse) = test: as above
FGFR3 = FGFR3 (UniProt P22607); test: as above
c-Src = test: as above
MERTK = MERTK (UniProt Q12866); test: as above
Fer (mouse) = test: as above
EPHB1 = EPHB1 (UniProt P54762); test: as above
EPHB2 = EPHB2 (UniProt P29323); test: as above
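Throughout, for SH2 binding enrichment of the phosphorylated peptide, bacterial display: peptide library displayed on the E. coli surface as eCPX fusions, selected cells deep-sequenced, score is each peptide's frequency after selection divided by its frequency in the input.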
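Throughout, for phosphorylation enrichment, bacterial display: 11-residue human phosphosite peptides and single-mutation variants displayed on the E. coli surface, counted by deep sequencing, each peptide's frequency after selection divided by its frequency in the unselected input library; frequency after pTyr selection over input frequency; kinase dosed for 20-30% of maximal phosphorylation in three min.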

Sequence of EPHB2 (P29323 whole entry, looked up, the tested form may be a part): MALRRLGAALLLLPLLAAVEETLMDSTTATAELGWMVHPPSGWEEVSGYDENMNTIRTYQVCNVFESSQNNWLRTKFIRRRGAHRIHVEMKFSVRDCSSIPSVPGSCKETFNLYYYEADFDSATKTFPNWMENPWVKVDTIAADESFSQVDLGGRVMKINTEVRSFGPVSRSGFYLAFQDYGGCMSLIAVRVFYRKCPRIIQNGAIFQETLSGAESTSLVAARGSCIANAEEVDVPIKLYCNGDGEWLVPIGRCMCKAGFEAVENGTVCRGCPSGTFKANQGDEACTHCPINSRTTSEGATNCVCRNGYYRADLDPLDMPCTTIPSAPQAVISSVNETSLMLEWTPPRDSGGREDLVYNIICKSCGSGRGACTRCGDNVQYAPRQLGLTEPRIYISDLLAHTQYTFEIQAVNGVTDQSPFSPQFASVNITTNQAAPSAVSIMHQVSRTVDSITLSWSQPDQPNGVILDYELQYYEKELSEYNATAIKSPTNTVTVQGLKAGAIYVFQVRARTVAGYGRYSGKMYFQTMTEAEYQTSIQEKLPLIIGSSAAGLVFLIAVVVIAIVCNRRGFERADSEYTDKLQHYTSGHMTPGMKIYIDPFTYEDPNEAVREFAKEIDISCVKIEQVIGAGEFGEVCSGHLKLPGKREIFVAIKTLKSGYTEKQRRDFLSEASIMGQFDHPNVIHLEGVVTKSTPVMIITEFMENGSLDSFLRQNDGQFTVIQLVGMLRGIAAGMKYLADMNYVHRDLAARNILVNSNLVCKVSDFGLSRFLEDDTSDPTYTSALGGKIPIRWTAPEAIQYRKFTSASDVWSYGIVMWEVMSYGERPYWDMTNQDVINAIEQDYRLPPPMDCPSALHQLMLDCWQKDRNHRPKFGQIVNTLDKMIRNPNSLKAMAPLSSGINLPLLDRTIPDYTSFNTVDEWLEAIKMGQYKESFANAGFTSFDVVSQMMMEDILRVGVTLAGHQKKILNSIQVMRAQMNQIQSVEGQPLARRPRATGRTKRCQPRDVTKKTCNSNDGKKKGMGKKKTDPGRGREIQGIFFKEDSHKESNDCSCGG
Sequence of FGFR3 (P22607 whole entry, looked up): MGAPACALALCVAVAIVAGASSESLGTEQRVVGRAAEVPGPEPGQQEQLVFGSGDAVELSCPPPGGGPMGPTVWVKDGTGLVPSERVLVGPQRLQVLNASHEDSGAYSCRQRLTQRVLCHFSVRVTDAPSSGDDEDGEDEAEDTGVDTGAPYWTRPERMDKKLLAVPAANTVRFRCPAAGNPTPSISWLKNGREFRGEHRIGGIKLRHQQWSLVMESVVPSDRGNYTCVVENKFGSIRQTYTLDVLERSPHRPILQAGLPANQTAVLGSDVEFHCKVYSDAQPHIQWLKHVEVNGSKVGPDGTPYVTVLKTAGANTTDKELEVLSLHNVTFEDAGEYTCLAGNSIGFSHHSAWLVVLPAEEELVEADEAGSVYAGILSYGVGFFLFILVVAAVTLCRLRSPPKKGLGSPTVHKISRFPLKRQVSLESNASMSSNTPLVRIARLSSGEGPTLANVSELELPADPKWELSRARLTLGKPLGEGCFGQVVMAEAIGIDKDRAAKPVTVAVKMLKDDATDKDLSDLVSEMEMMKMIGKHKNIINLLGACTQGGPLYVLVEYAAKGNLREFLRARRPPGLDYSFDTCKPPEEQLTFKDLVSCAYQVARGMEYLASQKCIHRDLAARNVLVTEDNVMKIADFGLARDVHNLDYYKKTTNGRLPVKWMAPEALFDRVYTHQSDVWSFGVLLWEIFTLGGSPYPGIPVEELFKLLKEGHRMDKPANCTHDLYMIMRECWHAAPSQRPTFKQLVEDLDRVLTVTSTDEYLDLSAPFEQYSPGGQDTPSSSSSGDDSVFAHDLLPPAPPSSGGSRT
Sequence of Fyn (P06241 whole entry, looked up): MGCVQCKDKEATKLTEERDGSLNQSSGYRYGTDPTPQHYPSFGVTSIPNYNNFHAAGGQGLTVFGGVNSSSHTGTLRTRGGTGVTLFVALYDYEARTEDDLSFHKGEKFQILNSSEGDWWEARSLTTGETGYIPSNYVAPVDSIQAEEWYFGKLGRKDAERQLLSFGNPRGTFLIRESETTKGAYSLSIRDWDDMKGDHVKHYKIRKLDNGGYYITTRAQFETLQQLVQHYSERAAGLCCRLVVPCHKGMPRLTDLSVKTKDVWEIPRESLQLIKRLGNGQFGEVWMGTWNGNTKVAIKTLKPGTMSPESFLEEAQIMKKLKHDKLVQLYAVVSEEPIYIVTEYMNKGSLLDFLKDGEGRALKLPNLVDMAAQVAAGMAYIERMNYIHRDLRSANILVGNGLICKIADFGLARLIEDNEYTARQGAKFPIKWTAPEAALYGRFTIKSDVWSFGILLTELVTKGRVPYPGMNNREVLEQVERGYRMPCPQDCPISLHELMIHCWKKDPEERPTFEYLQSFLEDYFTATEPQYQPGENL
Sequence of MERTK (Q12866 whole entry, looked up): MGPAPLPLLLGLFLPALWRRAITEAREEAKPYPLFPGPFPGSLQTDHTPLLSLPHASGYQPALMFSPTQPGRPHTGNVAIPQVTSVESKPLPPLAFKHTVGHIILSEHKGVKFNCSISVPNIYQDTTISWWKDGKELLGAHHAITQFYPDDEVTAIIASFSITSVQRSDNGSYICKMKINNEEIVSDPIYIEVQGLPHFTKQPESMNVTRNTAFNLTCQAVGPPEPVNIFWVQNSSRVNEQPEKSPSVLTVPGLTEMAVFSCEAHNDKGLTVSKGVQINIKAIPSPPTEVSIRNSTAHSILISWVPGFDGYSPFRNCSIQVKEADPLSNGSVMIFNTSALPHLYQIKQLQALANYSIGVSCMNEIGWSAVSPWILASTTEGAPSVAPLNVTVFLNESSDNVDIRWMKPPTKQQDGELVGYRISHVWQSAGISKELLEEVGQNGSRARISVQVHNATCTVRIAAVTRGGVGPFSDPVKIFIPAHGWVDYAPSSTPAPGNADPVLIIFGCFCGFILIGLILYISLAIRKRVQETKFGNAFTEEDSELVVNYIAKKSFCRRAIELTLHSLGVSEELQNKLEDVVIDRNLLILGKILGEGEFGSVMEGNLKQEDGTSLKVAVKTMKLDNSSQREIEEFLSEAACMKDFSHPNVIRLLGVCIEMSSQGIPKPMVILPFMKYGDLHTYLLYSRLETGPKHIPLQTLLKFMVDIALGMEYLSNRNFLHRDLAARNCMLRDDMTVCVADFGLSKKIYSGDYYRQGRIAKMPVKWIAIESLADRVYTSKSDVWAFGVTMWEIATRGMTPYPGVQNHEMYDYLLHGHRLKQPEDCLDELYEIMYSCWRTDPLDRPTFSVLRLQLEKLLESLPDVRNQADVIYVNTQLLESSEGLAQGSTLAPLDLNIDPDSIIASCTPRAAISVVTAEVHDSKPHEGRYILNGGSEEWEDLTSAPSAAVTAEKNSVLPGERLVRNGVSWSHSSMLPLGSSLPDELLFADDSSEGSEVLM
Sequence of EPHB1 (P54762 whole entry, looked up): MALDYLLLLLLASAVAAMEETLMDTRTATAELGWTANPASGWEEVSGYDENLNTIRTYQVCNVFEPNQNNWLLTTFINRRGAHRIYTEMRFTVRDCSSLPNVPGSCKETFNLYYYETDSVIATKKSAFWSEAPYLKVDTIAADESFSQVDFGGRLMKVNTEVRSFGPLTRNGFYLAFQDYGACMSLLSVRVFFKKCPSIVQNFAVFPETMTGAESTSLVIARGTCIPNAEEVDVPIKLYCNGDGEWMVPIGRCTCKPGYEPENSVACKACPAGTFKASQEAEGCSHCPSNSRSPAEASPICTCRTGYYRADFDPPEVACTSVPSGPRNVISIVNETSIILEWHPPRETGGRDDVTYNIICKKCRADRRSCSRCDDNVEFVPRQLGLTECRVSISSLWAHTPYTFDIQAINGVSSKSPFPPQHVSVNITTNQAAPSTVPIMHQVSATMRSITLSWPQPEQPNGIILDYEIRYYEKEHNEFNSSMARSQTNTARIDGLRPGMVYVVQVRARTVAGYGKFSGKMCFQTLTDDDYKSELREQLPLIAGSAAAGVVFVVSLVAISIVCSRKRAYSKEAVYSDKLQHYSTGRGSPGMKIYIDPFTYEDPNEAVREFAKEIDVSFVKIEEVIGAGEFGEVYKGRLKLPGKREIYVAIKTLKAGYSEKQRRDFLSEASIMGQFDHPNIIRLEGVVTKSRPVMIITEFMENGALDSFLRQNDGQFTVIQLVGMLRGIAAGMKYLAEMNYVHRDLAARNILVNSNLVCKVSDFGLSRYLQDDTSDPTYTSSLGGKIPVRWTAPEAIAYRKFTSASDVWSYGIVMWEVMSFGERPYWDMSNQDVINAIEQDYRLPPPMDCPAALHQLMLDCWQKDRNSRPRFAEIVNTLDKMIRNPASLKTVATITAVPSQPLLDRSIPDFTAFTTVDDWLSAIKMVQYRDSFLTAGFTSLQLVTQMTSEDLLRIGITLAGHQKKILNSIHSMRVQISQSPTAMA
Sequence of Hck (P08631 whole entry, looked up): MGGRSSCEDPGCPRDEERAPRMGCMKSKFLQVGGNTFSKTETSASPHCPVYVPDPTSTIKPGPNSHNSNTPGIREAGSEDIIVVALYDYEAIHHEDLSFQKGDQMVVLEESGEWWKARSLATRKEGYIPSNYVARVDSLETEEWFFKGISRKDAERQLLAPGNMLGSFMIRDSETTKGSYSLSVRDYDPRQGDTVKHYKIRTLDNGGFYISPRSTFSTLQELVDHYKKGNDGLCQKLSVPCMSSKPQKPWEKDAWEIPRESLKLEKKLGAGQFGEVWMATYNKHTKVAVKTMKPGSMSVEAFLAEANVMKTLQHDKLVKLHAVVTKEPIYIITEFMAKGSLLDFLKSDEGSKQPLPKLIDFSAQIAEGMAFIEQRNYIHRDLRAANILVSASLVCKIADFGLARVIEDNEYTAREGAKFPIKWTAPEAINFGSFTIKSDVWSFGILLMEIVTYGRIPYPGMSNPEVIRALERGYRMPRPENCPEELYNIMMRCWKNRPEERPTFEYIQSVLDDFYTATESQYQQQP

Sequence | SH2 binding enrichment (Grb2 SH2) | SH2 binding enrichment (c-Src SH2) | SH2 binding enrichment (SHP2-C SH2) | phosphorylation enrichment (Jak2) | phosphorylation enrichment (Hck) | phosphorylation enrichment (Fes) | phosphorylation enrichment (AncSZ) | phosphorylation enrichment (FGFR1) | phosphorylation enrichment (Fyn) | phosphorylation enrichment (c-Abl (mouse)) | phosphorylation enrichment (FGFR3) | phosphorylation enrichment (c-Src) | phosphorylation enrichment (MERTK) | phosphorylation enrichment (Fer (mouse)) | phosphorylation enrichment (EPHB1) | phosphorylation enrichment (EPHB2)
VVQGLYKSMPK [KBTBD2_Y250] | 0.752 | 0.429 | 0.79 | 0.516 | 0.438 | 0.611 | 0.53 | 0.384 | 0.34 | 0.492 | 0.537 | 0.403 | 0.532 | 0.328 | 0.386 | 0.477
EEGESYVCSSD [DCX_Y125] | 1.08 | 0.793 | 0.839 | 1.21 | 0.694 | 1.41 | 1.31 | 0.676 | 0.56 | 0.924 | 0.945 | 0.603 | 0.58 | 0.799 | 0.814 | 0.792
TVFENYVADIK [RHOA_Y42_E47K] | 0.846 | 0.538 | 0.607 | 0.889 | 0.534 | 0.878 | 0.922 | 0.48 | 0.534 | 0.699 | 0.688 | 0.536 | 0.442 | 0.495 | 0.845 | 0.676
PAIYTYDEYKK [COL8A2_Y648_T645I] | 0.778 | 2.29 | 0.513 | 1.27 | 8.13 | 1.95 | 1.93 | 2.04 | 18.6 | 1.04 | 2.2 | 9.14 | 13.5 | 9.34 | 3.61 | 3.29
KLFFHYNPKLC [INSR_Y457] | 1.12 | 0.712 | 1.18 | 1.47 | 0.562 | 1.41 | 1.25 | 0.534 | 0.384 | 0.855 | 0.777 | 0.428 | 0.383 | 0.566 | 0.631 | 0.568
ERDYTYDELLN [EIF2S2_Y176_E177D] | 0.786 | 1.83 | 0.688 | 1.21 | 1.04 | 1.27 | 1.17 | 0.558 | 0.631 | 0.887 | 0.791 | 0.661 | 0.498 | 0.506 | 0.742 | 0.682
RRFSSYSQMEN [PKP1_Y120] | 0.79 | 0.559 | 0.774 | 0.657 | 0.896 | 2.57 | 2.29 | 1.34 | 1.48 | 0.808 | 1.18 | 0.614 | 1.06 | 0.833 | 0.984 | 0.89
RIGRKYKKVRF [F8_Y442] | 0.488 | 0.254 | 0.275 | 0.432 | 0.356 | 0.341 | 0.47 | 0.352 | 0.36 | 0.298 | 0.364 | 0.385 | 0.351 | 0.298 | 0.338 | 0.511
ARSMEYLAEQK [MST1R_Y1198] | 0.819 | 0.384 | 0.611 | 1.08 | 0.622 | 0.839 | 0.755 | 0.471 | 0.585 | 0.655 | 0.622 | 0.474 | 0.548 | 0.403 | 0.488 | 0.493
LSDVIYVILRK [PMP22_Y153_G150D] | 1.17 | 0.58 | 1.31 | 1.23 | 0.391 | 1.28 | 1.27 | 0.456 | 0.414 | 0.617 | 0.684 | 0.38 | 0.278 | 0.398 | 0.57 | 0.55

Continued, in another order:

SH2 binding enrichment (Grb2 SH2) | SH2 binding enrichment (c-Src SH2) | SH2 binding enrichment (SHP2-C SH2) | Sequence | phosphorylation enrichment (Jak2) | phosphorylation enrichment (Hck) | phosphorylation enrichment (Fes) | phosphorylation enrichment (AncSZ) | phosphorylation enrichment (FGFR1) | phosphorylation enrichment (Fyn) | phosphorylation enrichment (c-Abl (mouse)) | phosphorylation enrichment (FGFR3) | phosphorylation enrichment (c-Src) | phosphorylation enrichment (MERTK) | phosphorylation enrichment (Fer (mouse)) | phosphorylation enrichment (EPHB1) | phosphorylation enrichment (EPHB2)
1.05 | 0.544 | 0.723 | AFPGEYIPTVF [RAC1_Y32] | 0.924 | 0.492 | 0.828 | 0.776 | 0.618 | 0.381 | 0.689 | 0.617 | 0.476 | 0.474 | 0.509 | 0.444 | 0.476
0.58 | 0.374 | 0.581 | RFLRGYQQDAF [HLA-A_Y137_R138Q_YF] | 0.965 | 0.693 | 0.684 | 1.11 | 0.803 | 0.685 | 0.81 | 0.677 | 0.603 | 0.558 | 0.518 | 0.796 | 0.518
1.03 | 1.02 | 3.38 | LEKISYVYMKR [SSX7_Y48] | 1.37 | 1.18 | 1.75 | 1.72 | 0.784 | 1.21 | 1.3 | 1.32 | 0.547 | 0.81 | 0.875 | 1.23 | 1.37
0.873 | 0.546 | 0.874 | LGGSPYPGVPV [FGFR1_Y701] | 0.503 | 0.481 | 0.881 | 0.591 | 0.514 | 0.524 | 0.675 | 0.463 | 0.359 | 0.4 | 0.413 | 0.493 | 0.615
0.783 | 0.398 | 0.723 | SSLMKYQQNVS [EGFEM1P_Y160_P157L] | 0.422 | 0.426 | 0.571 | 0.491 | 0.321 | 0.386 | 0.374 | 0.536 | 0.363 | 0.343 | 0.324 | 0.416 | 0.46
